According to PMC2766422:
Like-named read-outs stand apart in the source and are kept apart here.

How the values were obtained:
PTB1:12 (RRM1-RRM2) [1] = molecular target: T1, PTB1:12 (RRM1-RRM2) (human, UniProt P26599-1 1-301); experiment: EMSA
PTB1 [2] = molecular target: T2, PTB1 (human, UniProt P26599-1 1-531); experiment: EMSA
PTB1:34 (RRM3-RRM4) [3] = molecular target: T3, PTB1:34 (RRM3-RRM4) (human, UniProt P26599-1 334-531); experiment: EMSA
PTB1/W3 [4] = molecular target: T4, PTB1/W3 (human, UniProt P26599-1 1-531, F371W); experiment: EMSA
PTB1/W4 [5] = molecular target: T5, PTB1/W4 (human, UniProt P26599-1 1-531, F487W); experiment: EMSA
PTB1/W1 = PTB1/W1 (human, UniProt P26599-1 1-531, F98W); experiment: EMSA
PTB1 [6] = molecular target: T2, PTB1; experiment: EMSA; remark: listed apart in the source
PTB1:34 (RRM3-RRM4) [7] = molecular target: T3, PTB1:34 (RRM3-RRM4); experiment: EMSA; remark: listed apart in the source
PTB1 [8] = molecular target: T2, PTB1; experiment: EMSA; remark: listed apart in the source
PTB1 [9] = molecular target: T2, PTB1; experiment: EMSA; remark: listed apart in the source
PTB1 [10] = molecular target: T2, PTB1; experiment: EMSA; remark: listed apart in the source
PTB1:34 (RRM3-RRM4) [11] = molecular target: T3, PTB1:34 (RRM3-RRM4); experiment: EMSA; remark: listed apart in the source
PTB1:12 (RRM1-RRM2) [12] = molecular target: T1, PTB1:12 (RRM1-RRM2); experiment: EMSA; remark: listed apart in the source
PTB1 [13] = molecular target: T2, PTB1; experiment: filter binding
PTB1/W3 [14] = molecular target: T4, PTB1/W3; experiment: Trp fluorescence quenching
PTB1/W4 [15] = molecular target: T5, PTB1/W4; experiment: Trp fluorescence quenching
PTB1:12 (RRM1-RRM2) [16] = molecular target: T1, PTB1:12 (RRM1-RRM2); experiment: EMSA; remark: listed apart in the source
PTB1 [17] = molecular target: T2, PTB1; experiment: EMSA; remark: listed apart in the source

Question: Does GGGACUACGCAAUUCUCUUUUCUGUCUACAAAUCCAAAG (ssRNA) [GABA RNA11] bind (PTB1:12 (RRM1-RRM2) [1])?
Answer: Result: no binding

Question: What about the Kd (PTB1 [2]) of the same binder?
Answer: The Kd was 15 ± 2 nM.

Question: What about the Kd (PTB1:34 (RRM3-RRM4) [3]) of the same binder?
Answer: Its Kd is 50 ± 3 nM.

Question: And the binding signal (PTB1/W3 [4])?
Answer: The binding signal was ~2 fold lower affinity than PTB1.

Question: What about the binding signal (PTB1/W4 [5]) of the same binder?
Answer: The binding signal was ~2 fold lower affinity than PTB1.

Question: What about the binding signal (PTB1/W1) of the same binder?
Answer: Its binding signal is ~2 fold lower affinity than PTB1.

B1: c-src 3' end RNA (structured_RNA)
RNA: GGGAUCGCUUCGCUGAGGCUGGGGGCUGCUCUCUGCAUGUGCUUCCUCCACCGCCCCUGUGUGUUUCCAGCUCUCUCCCCGUCCCUUUAGCUUACCCUGCAUCCCACCUGUAUGAGCCGUACCC
Question: Does B1 bind (PTB1 [6])?
Answer: Result: binds

Question: Does B1 bind (PTB1:34 (RRM3-RRM4) [7])?
Answer: Result: binds

Question: GGAUCCUUCUCUCUGCUUCUCUCUCGCUGGCCCUUAGGAGG (structured_RNA) [c-src 5' SL (39-mer)] was tested. Which Kd (PTB1 [8]) did it give?
Answer: Its Kd is 45 ± 2 nM.

B2: c-src 5' SL + N1 (78-mer, RNA78) (structured_RNA)
RNA: GGCAACCCUCUCCUUCUCUCUGCUUCUCUCUCGCUGGCCCUUAGGAGGAAGGUGCCAUCGAUGUCAGGUGUGUACCGAGG
Question: How did the Kd (PTB1 [9]) turn out when B2 was run?
Answer: Its Kd is 80 ± 2 nM.

Question: Does GGGUCACGGCUAGCUGUGAAAGGUCCGUGAG (structured_RNA) [HCV X SL2] bind (PTB1 [10])?
Answer: Result: no binding

Question: What does the source list for GGGAUCGGUGCCAUCGAUGUCAGGUGUGUACCCCUUAGGAGG (structured_RNA) [c-src exon N1 RNA]?
Answer: binding result (PTB1:34 (RRM3-RRM4) [11]): no binding; binding result (PTB1:12 (RRM1-RRM2) [12]): no binding; binding result (PTB1 [10]): no binding

Question: Which results are given for GGGCUUCUUCGGAUGUUUUCCUUCAAG (structured_RNA) [GABAA gamma2 exon 4 RNA]?
Answer: binding result (PTB1:34 (RRM3-RRM4) [11]): no binding; binding result (PTB1:12 (RRM1-RRM2) [12]): no binding; binding result (PTB1 [10]): no binding

Question: For GGAGACUUGGUGGCUCCAUCUUAGCCCUA (structured_RNA) [HCV X SL3], which Kd (PTB1 [13]) is on record?
Answer: The Kd was 410 ± 30 nM.

Question: Does GGAGACUUGGUGGCUCCAUCUUAGCCCUA (structured_RNA) [HCV X SL3] bind (PTB1/W3 [14])?
Answer: Result: binds

Question: Does GGAGACUUGGUGGCUCCAUCUUAGCCCUA (structured_RNA) [HCV X SL3] bind (PTB1/W4 [15])?
Answer: Result: binds

Question: And the Kd (PTB1:12 (RRM1-RRM2) [16])?
Answer: The Kd was 1600 ± 600 nM.

Question: What about the Kd (PTB1 [17]) of the same binder?
Answer: Its Kd is 285 ± 120 nM.
